Values quoted from earlier work, collected in paper PMC5811392.

Key:
p53 (Homo sapiens) = p53 (Homo sapiens) (UniProt P04637)
p53 DBD (Homo sapiens) = p53 DBD (Homo sapiens) (UniProt P04637)
Chain of p53 DBD (Homo sapiens) (P04637 94-312): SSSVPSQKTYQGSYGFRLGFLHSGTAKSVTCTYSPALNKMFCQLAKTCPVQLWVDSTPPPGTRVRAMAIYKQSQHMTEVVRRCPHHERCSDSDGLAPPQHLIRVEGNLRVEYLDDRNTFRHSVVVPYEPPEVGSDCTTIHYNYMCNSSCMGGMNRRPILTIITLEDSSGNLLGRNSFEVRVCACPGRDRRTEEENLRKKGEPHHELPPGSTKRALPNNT

Chain of BCL-xL (Q07817 whole entry): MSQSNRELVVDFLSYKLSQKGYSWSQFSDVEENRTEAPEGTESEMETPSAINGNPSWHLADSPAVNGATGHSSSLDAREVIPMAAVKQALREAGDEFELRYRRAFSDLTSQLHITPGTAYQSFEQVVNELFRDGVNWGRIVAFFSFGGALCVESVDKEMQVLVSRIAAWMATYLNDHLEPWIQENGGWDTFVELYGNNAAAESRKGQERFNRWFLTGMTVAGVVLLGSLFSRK
Chain of p53 (Homo sapiens) (P04637 whole entry): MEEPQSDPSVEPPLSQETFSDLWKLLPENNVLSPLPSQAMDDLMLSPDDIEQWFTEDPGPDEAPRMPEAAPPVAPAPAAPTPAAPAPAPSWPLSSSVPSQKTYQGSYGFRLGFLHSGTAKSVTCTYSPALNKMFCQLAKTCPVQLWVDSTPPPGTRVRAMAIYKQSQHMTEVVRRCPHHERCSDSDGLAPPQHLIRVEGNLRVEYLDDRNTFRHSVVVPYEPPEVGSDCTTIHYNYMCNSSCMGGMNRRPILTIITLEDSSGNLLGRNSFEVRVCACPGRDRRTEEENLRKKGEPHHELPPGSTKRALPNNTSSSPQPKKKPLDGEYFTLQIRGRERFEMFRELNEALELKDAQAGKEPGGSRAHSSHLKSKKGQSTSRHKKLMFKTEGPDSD

Kd (p53 (Homo sapiens)): 1 µM | Kd (p53 DBD (Homo sapiens)): 17 µM
Substance: BCL-xL (from UniProt Q07817)
